Measurements: the supplement of paper PMC9170038

System: MS2 coat protein
Experiment: apparent KD of MS2 coat protein; designed switch direction (-1 OFF switch, 1 ON switch): 1; higher = weaker reporter binding
How it was run: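 Designed RNA switches with common flanks were transcribed on Illumina chips by stalled E. coli RNA polymerase and titrated with SNAP-549-labelled MS2 coat protein, from 0.7 or 1.5 nM doubling to 3 µM, in Tris-HCl pH 7.5 buffer with KCl, MgCl2, BSA, DTT, tRNA and Tween-20. Steps lasted 0.8–1.5 h (lowest) to 10–20 min (highest). Titrations ran without input, with 200 uM small-molecule ligand, or with an oligonucleotide input. Normalised cluster fluorescence was curve-fitted, and apparent KD is the per-design median over clusters.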

[1] = input ligand: microRNA oligo, concentration not stated
[2] = Eterna round: R95, input ligand: FMN 200 uM
[3] = Eterna round: R95, input ligand: microRNA oligo, concentration not stated
[4] = Eterna round: R95, input ligand: none

Sequence | apparent KD of MS2 coat protein (input ligand: FMN 200 uM) | apparent KD of MS2 coat protein [1] | apparent KD of MS2 coat protein (input ligand: none) | apparent KD of MS2 coat protein [2] | apparent KD of MS2 coat protein [3] | apparent KD of MS2 coat protein [4]
ACAUGAAAGUUAGGAUAUUUUGUACCUACAUGUGACAUGAGGAUCACCCAUGUGGUAAGUAUAAGAGAGAAGGAGCAGAUAUGU [Equivalence 1 - Jieux - Same State NG 2] (Eterna round: R96, puzzle: Same State NG 2) | 45.1 nM | 48.1 nM | 52.8 nM |  |  | 
GGUCUAGUUACAGGAUAUGCUAUCCUUUGGGUAGCAGAAGGGUGGUAACAUGAGGAUCACCCAUGUGGGCCAGGGCGUGAGCCC [JL SSNG1 1.00] (Eterna round: R96, puzzle: Same State NG 1) | 770 nM | 981 nM | 1260 nM |  |  | 
GUUACAUGAGGAUCACCCAUGUAUGUGUGGGAGUAAGUGUCUUAGGAUAUCUAUGAUUUAAUUUGAGAGAAGGAAGAUUGUUGU [JMF's solution 87] (Eterna round: R96, puzzle: Same State NG 3) | 88.8 nM | 76.4 nM | 102 nM |  |  | 
UUUGCAUGACGAGGAUAUCAUUUAUUUCUUGAUUGAGAAGGCGUUCUUUUUAUUACCUAACAUGAGGAUCACCCAUGUGACAGU [JR_SSNG1_Sub046] (Eterna round: R96, puzzle: Same State NG 1) | 13.2 nM | 10.3 nM | 16.7 nM |  |  | 
GUAGCAUACCGAGGAUAUUCAUAACCGAAAGGAACAUGAGGAUCACCCAUGUGGCGAAAGCCUUGGGAGAAGGCGGAAUGCUAC [Xeonanis - 20 Mod74] (Eterna round: R96, puzzle: Same State NG 2) | 42.8 nM | 291 nM | 957 nM |  |  | 
AACAAACGCGGAGGAUAUGGGCGAGGCGCGGAAGUCCACGCCAAAACAUGAGGAUCACCCAUGUCCCAGAAGGCCGCACAAAAU [Gererier] (Eterna round: R96, puzzle: Same State NG 2) | 16.3 nM | 40.8 nM | 49.1 nM |  |  | 
GCGAGCGUACUUGCAGACAUGAGGAUCACCCAUGUAACUGGACAGGAUAUGGUACCGUUUCGGUACCAGAAGGGUUCACUCAUG [JL SSNG3 3.58] (Eterna round: R96, puzzle: Same State NG 3) | 388 nM | 119 nM | 176 nM |  |  | 
GAGGGACAGACCAACAUGAGGAUCACCCAUGUCCUCGCAGGUCAGGAUAUCCGGAGGUAGACGAAGGAGAAGGGACGGUGAACC [AK SSNG3-V2-38] (Eterna round: R96, puzzle: Same State NG 3) | 893 nM | 251 nM | 631 nM |  |  | 
UUAAAACAUGAGGAUCACCCAUGUAAUAAUAUGGGAGGAUAUCAGAUUUAAUUUAAUUUAUGAGAAGGCCUAAAUG [Mat - Same State 1 - Mod of Eli - D60] (puzzle: Same State 1) |  |  |  | 65.4 nM | 407 nM | 1150 nM
GUUACAUGAGGAUCACCCAUGUAUGUGUGGGAGUAAGUGUCUUAGGAUAUCUAGCAUUUAAUUUAAGAGAAGGAAGAUUGUUGU [JMF's solution 51] (Eterna round: R96, puzzle: Same State NG 3) | 79.7 nM | 59.9 nM | 84.1 nM |  |  | 
GGGAGACAUGAGGAUCACCCAUGUGGGAGGGAACGAGGAUAUGUAAGGAGAAAGAAUAGAACAGAAGGCGUAGGUG [JR_SS1_Sub021] (puzzle: Same State 1) |  |  |  | 35.8 nM | 55.5 nM | 60.8 nM
AACAAUCUAUCUGAGGAUAUUAUGAAAUAAACAUGAGGAUCACCCAUGUGCAGGAAAACUGCAUAUGAGAAGGCAGAUAGAUUGA [salish99_ss2_r3_027] (puzzle: Same State 2) |  |  |  | 18.8 nM | 336 nM | 636 nM
ACAAGCUUUUUGCUCAUCUUAUGUCCGAAACAUGAGGAUCACCCAUGUAUAGAUUAUGUGUUGUUGUAGAUGCAAGA [JR_SHM208A_Sub062] (puzzle: Sensor for hsa-mir-208a) |  |  |  | 31.8 nM | 25.9 nM | 42.9 nM
UCUUGGUUUUUGCUCGUUUUUUGUGUUGAACAUGAGGAUCACCCAUGUAUUGUACGGUCCAGUUUAGUGGUAGUCCG [JMF 70] (puzzle: Sensor for hsa-mir-208a) |  |  |  | 34.6 nM | 21.5 nM | 36.4 nM
ACAUGAGAUUGAGGAUAUAUAGUACCUACAUGUGACAUGAGGAUCACCCAUGUGGUAAGUAUGACAUAGAAGGCAAAGAUAUGU [Equivalance 99 - Jieux - Same State NG 2] (Eterna round: R96, puzzle: Same State NG 2) | 35 nM | 37.6 nM | 50.6 nM |  |  | 
GUGGUCAGACAUGAGGAUCACCCAUGUGGAAUAAAUAAGGGUCAGGAUAUGAAAUAUAGGAUAUAUCAGAAGGGAUGGUUGGUG (Eterna round: R96, puzzle: Same State NG 3) | 101 nM | 81.1 nM | 90.5 nM |  |  | 
GGGAGAGACGGAGGAUAUGGUGGGAGAUAGGGACUAGAAGGUUGGACAUGAGAAUCGAACAUGAGGAUCACCCAUGUUGGGAGG [iteri-3] (Eterna round: R96, puzzle: Same State NG 1) | 51 nM | 28.3 nM | 63.2 nM |  |  | 
AGGUAACAUGAGGAUCACCCAUGUAAGGUGAACGUAGGAUAUCGAGGAGGUAGAGUAGGUCGAGAAGGACGAGAAG [JR_SS1_Sub094] (puzzle: Same State 1) |  |  |  | 139 nM | 100 nM | 127 nM
AGUCCGGCCUGAGCUGGACUGAAGCAUGUACAUGAGGAUCACCCAUGUUCAUGUGCAGGCUUUUUGCUCGUCUUGUG [JL-shm-2.04 JL mod] (Eterna round: R96, puzzle: Sensor for hsa-mir-208a) | 115 nM | 12.6 nM | 103 nM |  |  | 
GGAGCCGGCACCGAGGAUAUUCAUAUUAAAACAUGAGGAUCACCCAUGUACAGGAGAACCUGUUGGGAGAAGGCGGAUCGGCUCG [Xeonanis - 25] (puzzle: Same State 2) |  |  |  | 29.9 nM | 296 nM | 437 nM
AAAACAGGCUUCCUCUCGUCUCAAAAUGCACAUGAGGAUCACCCAUGUAAAACCCAGCGUAGUGUCGCACUACCUGA [Laresoar] (puzzle: Sensor for hsa-mir-208a) |  |  |  | 161 nM | 23.4 nM | 126 nM
AGGCAAGCUUUUUGCUUGUAUGCAGGAGAACAUGAGGAUCACCCAUGUCUUGGAGGUGUUGAAAAUAAGAGAAUGCA [JR_SHM208A_Sub006] (puzzle: Sensor for hsa-mir-208a) |  |  |  | 63.9 nM | 72.8 nM | 93.9 nM
UAAGUCAUGUAAGGAUAUGCAGCCGAAACGGCUGCAGAAGGUACUAUAAUUACAUGAGGAUCACCCAUGUUAUAAAAUUAAAAU [Mat - Same State NG 1 - JL mod - D79] (Eterna round: R96, puzzle: Same State NG 1) | 20.8 nM | 31.1 nM | 57.3 nM |  |  | 
ACAUGAGAAAGAGGAUAUGUUGUACCUACAUGUGACAUGAGGAUCACCCAUGUGGUAAGUAUGAUACAGAAGGCUUAGAUAUGU [Equivalance 61 - Jieux - Same State NG 2] (Eterna round: R96, puzzle: Same State NG 2) | 15.1 nM | 17.8 nM | 25.6 nM |  |  | 
GUGGUCAGACAUGAGGAUCACCCAUGUGGAAUAAAUAAGGAGAAGGAUAUGUAAUAUAGGAUAUAACAGAAGGUUUGGUUGGUG (Eterna round: R96, puzzle: Same State NG 3) | 105 nM | 69.7 nM | 96.5 nM |  |  | 
GUUACAUGAGGAUCACCCAUGUAUGUGUGGGAGUAAGUGUCUUAGGAUAUCUGUUAUUUAAUAUAAGAGAAGGAAGAUUGUUGU [JMF's solution 44] (Eterna round: R96, puzzle: Same State NG 3) | 123 nM | 76.5 nM | 108 nM |  |  | 
UCUUGGUUUUUGCUCGUUUUUUGUGUUGAACAUGAGGAUCACCCAUGUAUUGUACAGUCCAAUUUAAUAAUGGUCCG [JMF 53] (puzzle: Sensor for hsa-mir-208a) |  |  |  | 34.2 nM | 25.4 nM | 46.7 nM
CCAUAGUACAAUUUAGAUCUACAUGAGGAUCACCCAUGUACUGAGGAUAUCAGCUCGUUUAGAGCUGAGAAGGCAGAAUUAAUU [SSNG3/5-A3] (Eterna round: R96, puzzle: Same State NG 3) | 57.1 nM | 116 nM | 112 nM |  |  | 
GUUAGGAAUCUAGCCAACAUGAGGAUCACCCAUGUUAGUGGGAAGGAUAUGGUACAGAAACUGUACCAGAAGGUCUUAUUGUUU [Omei SS(NG) 3 AV10] (Eterna round: R96, puzzle: Same State NG 3) | 75.4 nM | 54.6 nM | 96.6 nM |  |  | 
UUAAGCAACGGGCAGGAUAUGUAUUAAAAUACAUGAGGAUCACCCAUGUGCAGGUGUAACACCUGACAGAAGGGCCAAUCGGUGC [Soteed - 8] (puzzle: Same State 2) |  |  |  | 39.5 nM | 256 nM | 409 nM
